The target of assay [1] is T1, Cathepsin G, purified at Novo Nordisk A/S using the method of Baugh and Travis.
T1 sequence (P08311 21-244, species assumed, looked up): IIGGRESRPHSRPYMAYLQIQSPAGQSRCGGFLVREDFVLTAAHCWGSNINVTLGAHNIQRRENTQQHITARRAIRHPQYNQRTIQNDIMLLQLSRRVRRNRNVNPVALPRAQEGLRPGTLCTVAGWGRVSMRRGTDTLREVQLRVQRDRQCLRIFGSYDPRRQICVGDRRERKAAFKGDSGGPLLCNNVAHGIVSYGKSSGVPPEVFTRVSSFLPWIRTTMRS

Assay [2] addresses Chymotrypsin (2.5 nM), Novo Nordisk A/S.
The target in assay [3] is Leukocyte Elastase, purified at Novo Nordisk A/S using the method of Baugh and Travis.
Assay [4] has as its target Trypsin (8 nM), Novo Nordisk A/S, Bagsvaerd, Denmark.
In assay [5] the target is Urokinase (5 nM), Serono, Freigung, Germany.
Assay [6] has as its target glandular kallikrein (1 U/ml), Sigma, St Louis, MO.
The target in assay [7] is plasma kallikrein (3 nM), Kabi.

B1: Kunitz-type inhibitor domain of the amyloid protein precursor (protein)
chain: EVCSEQAETGPCRAMISRWYFDVTEGKCAPFFYGGCGGNRNNFDTEEYCMAVCGSA
The term % Inhibition denotes the percentage by which the read-out fell short of the control. Low values mean a weak effect, high ones a strong effect. In the case of B1, the % Inhibition in assay [1] was 16%; in assay [2], 94%; in assay [3], 6%; in the assay with Plasmin (10 nM), Kabi, 90%; in assay [4], 99.7%; in assay [5], 0%. Moreover, the % Inhibition in assay [6] turned out to be 82%; in assay [7] it was 71%.
